Molecular target: the molecule itself
Assay: AUC

B1: MxiN (recombinant, from pET15b) (natural protein)
chain: MKVCNMQKGTLPVSRHHAYDGVVIKRIEKELCKTIKDRDTESKKKAICVIKDATKKAESLRIDAVCDGYQIGIQTAFEHIIDYICEWKLKQNENRRNIEDYITSLLSENLHDERIISTLLEQWLSSLRNTVTELKVVLPKCNLALRKKLELDLHKYRSDVKIILKYSEGNNYIFCSGNQVVEFSPQDVISGVKIELAEKLTKNDKKYFKELAHKKLRQIAEDLLKENPVND
- stoichiometry N: 2

— PMC5910026 (Biochemistry, 2018)
